{"source": "patent US8221990B2", "about": "“Screening GPR12 receptor for substances having Nesfatin-1-like action, or which regulate Nesfatin-1 action” (Teijin Pharma Limited, priority 2007, dated 2012)", "key": {"GPR12": {"target": "T1, GPR12 (Mus musculus, UniProt P35412)", "T1 construct": "in which GPR12 was endogenously expressed; endogenous in cells; host or cells: NB41A3 cells (ATCC-CCL147), mouse brain neuroblastoma", "T1 sequence (P35412 1-334)": "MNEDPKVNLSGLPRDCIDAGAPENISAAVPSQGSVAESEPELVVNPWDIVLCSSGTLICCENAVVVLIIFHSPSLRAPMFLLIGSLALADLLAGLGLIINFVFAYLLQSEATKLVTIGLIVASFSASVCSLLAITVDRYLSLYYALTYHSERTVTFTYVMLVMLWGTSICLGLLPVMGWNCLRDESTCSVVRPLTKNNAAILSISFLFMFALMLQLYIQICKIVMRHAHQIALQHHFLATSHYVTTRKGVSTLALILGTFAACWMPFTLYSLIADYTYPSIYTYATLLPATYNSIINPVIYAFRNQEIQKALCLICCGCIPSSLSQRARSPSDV", "experiment": "Expression of a CRE-reporter gene (pCRE-Luc luciferase) in NB41A3 cells expressing GPR12 endogenously", "format": "cell-based", "conditions": "NB41A3 cells transfected with pCRE-Luc, 10^-10 M, 16 hours", "experimental": "NB41A3 cells (ATCC-CCL147), a cell strain derived from mouse brain neuroblastoma, in which GPR12 was endogenously expressed were used. The confluent NB41A3 cells were recovered in a 10-cm dish, plated onto 10 cm-dishes after dividing the cell colony in four quarters, and cultured for one day in Ham's F12K medium. The cells were transected with 5 μg of the reporter plasmid pCRE-Luc (Stratagene Corporation, Catalog No. 219074) in which TATA-BOX and luciferase were incorporated into downstream of CRE by a calcium phosphate method. The cells were washed with Ham's F12K medium 16 hours after the transfection. Ham's F12K medium containing no test substance (Vehicle), Ham's F12K medium containing 10^−10 M of Nesfatin-1 M30 (Mid-Segment: SEQ ID NO: 11), Ham's F12K medium containing 10^−10 M of a modified peptide M30_Ag-A (SEQ ID NO: 50) (M30_Ag-A), and Ham's F12K medium containing 10^−10 M of a modified peptide M30_MSH-A (SEQ ID NO: 51) […] were added to the cells, and the resultant mediums were cultured under the conditions of 37° C. and 5% CO2 for 16 hours. After the culturing, the cells were washed twice with phosphate-buffered saline (PBS), lysed with 4 mL of lysis buffer (an aqueous solution containing 25 mM of glycylglicine (pH 7.8), 15 mM of magnesium sulfate, 4 mM of glycol ether diaminetetraacetic acid (EGTA), 1 mM of dithiothreitol (DTT), and 1% (volume/volume) of Triton X-100). […] After adding 200 μL of 0.2 mM of d-luciferin to the diluted cell lysate, the luminescence was measured for 10 seconds by a luminometer, and the amount of luminescence (units) was determined. Further, the amount of protein in each cell lysate was measured by BCA™ Protein Assay Kit-Reducing Agent Compatible (Pearce, Catalog No. 23250), and the value obtained by dividing the amount of luminescence (units) by the amount of protein (μg) in a sample was determined as a luciferase activity. […] The cells were cultured for 16 hours, and then the level of luciferase activity was also determined."}, "[1]": {"experiment": "Amount of food intake in a mouse after intraperitoneal administration", "format": "in vivo", "conditions": "C57BL/6J male mouse, 0.25 nmol per gram of body weight, 0 to 3 hours", "experimental": "A 7-week-old C57BL/6J strain male mouse (CLEA Japan, Inc.) was used as an experimental animal. After purchasing the mouse, the mouse was raised at 22° C. in cycles of the 12-hour light period from 6 a.m. to 6 p.m. and the 12-hour dark period from 6 p.m. to 6 a.m. on the next morning with free access to pelleted feed (CLEA Japan, Inc., CE-2).\nA 5 nmol aliquot of Nesfatin-1M30 (Mid-segment, SEQ ID NO: 11), M30_Ag-A (SEQ ID NO: 50), or M30_MSH-A (SEQ ID NO: 51) was dissolved in each 100 μL of saline, and each of the resultant solutions was administered intraperitoneally to a C57BL/6J mouse at a dose of 0.25 nmol per gram of body weight of the mouse. In the control group, only saline (Vehicle) was administered. Each mouse (5 mice in each group) was intraperitoneally given a single injection of a sample using a tuberculin syringe with 26 G needle, immediately before the dark period (6 p.m.).\nEach mouse administered was placed in an individual cage, and the amount of food intake was determined by measuring the decreased amount of the pelleted feed during the period from 0 to 3 hours after the administration of a test substance. In the mouse administered with each test sample, the amount of food intake during 3 hours after the administration (g/3 h) is shown in FIG. 6."}}}
{"substance": "Nesfatin-1M30: mid-segment of Nesfatin-1, human-derived Nesfatin-1M30, SEQ ID NO: 11 (PDTGLYYDEYLKQVIDVLETDKHFREKLQK; listed as Homo sapiens)", "values": [{"measurement": "luciferase activity compared with Vehicle", "setting": "GPR12", "result": "enhanced"}, {"measurement": "amount of food intake during 3 hours after the administration compared with control group (Vehicle)", "setting": "[1]", "result": "significant decrease of the food intake"}]}
